From the supplement of paper PMC9170038

Tested on: MS2 coat protein
Assay: apparent KD of MS2 coat protein; designed switch direction (-1 OFF switch, 1 ON switch): -1; higher = weaker reporter binding
In short: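 Designed RNA switches were transcribed on Illumina chips by stalled E. coli RNA polymerase and titrated with SNAP-549-labelled MS2 coat protein from 0.7 or 1.5 nM, doubling to 3 µM. Step length ran from 0.8–1.5 h at the lowest concentration to 10–20 min at the highest. The apparent KD is the median over clusters for each design, from curve-fitted normalised cluster fluorescence.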

[1] = input ligand: microRNA oligo, concentration not stated
[2] = Eterna round: R95, input ligand: microRNA oligo, concentration not stated

Row | Sequence | apparent KD of MS2 coat protein (input ligand: FMN 200 uM) | apparent KD of MS2 coat protein (input ligand: none) | apparent KD of MS2 coat protein [2] | also measured
1 | AUAAUACAUGUAGGAUAUGCGUGGCGAAGCUAUGCAGAAGGACAUGAGGAUCACCCAUGUUCUAGCGUCUGCGUACAGAUGCUA [JL eng1 1.35 mod 1] (Eterna round: R96, puzzle: Exclusion NG 1) | 37.3 nM | 18.1 nM |  | apparent KD of MS2 coat protein [1]: 14 nM
2 | AUAAUGCAAGCAUGGUCCCACAUGAGGAUCACCCAUGUGUUCGUCUUAUAGGCUGCUGUGGCUUUUGCCUCGUUGGC [LRO Sensor-off var1-10 loose mod of D91 from Mat747] (Eterna round: R97, puzzle: Sensor, turn-off variant 1) | 74.3 nM | 78.5 nM |  | 
3 | AUAAUGUCAGGAUAUCAGACGUACAGCUUCGGCUGUACGUCUGAGAAGGGACAUGAGGAUCACCCAUGUGAUUA [E4/3-A1] (Eterna round: R97, puzzle: Exclusion 4) | 224 nM | 940 nM |  | 
4 | AUAAUGUCAGGAUAUCAGUCGUACAGCCUCGGCUGUACGACUGAGAAGGGACAUGAGGAUCACCCAUGUGGUCA [E4/6-A2] (Eterna round: R97, puzzle: Exclusion 4) | 42.4 nM | 155 nM |  | 
5 | AUAAUGUGAGGAUAUCAGUCGACUAGCCUCGGCUAGUCGACUGAGAAGGCACAUGAGGAUCACCCAUGUAGAUC [E4/17-A2] (Eterna round: R97, puzzle: Exclusion 4) | 75.8 nM | 825 nM |  | 
6 | AUACCACGAGGAUAUCGUCUCUCCCACAUGAGGAUCACCCAUGUUAUCCAUGUUUCGUUUCGAGAAGGCGUGGGUU [JR_E5_Sub072] (puzzle: Exclusion 5) |  |  | 58.7 nM | 
7 | AUACCAUGCCGCCUAAUAGCUUUUUGCUCGUCUUAUAAAACAUGAGGAUCACCCAUGUAAAACUCGUGGCGUGACCC [Leorbixe] (puzzle: Sensor v3, turn-off variant 2) |  |  | 19.9 nM | apparent KD of MS2 coat protein (Eterna round: R95, input ligand: FMN 200 uM): 77 nM; apparent KD of MS2 coat protein (Eterna round: R95, input ligand: none): 60.8 nM
8 | AUACGUGAGAAGGAUAUCACACGCCAGAGGCGUUGAGAAGGUUUCACAUGAGGAUCACCCAUGUGCUCUUCCAG [Orlaa] (Eterna round: R97, puzzle: Exclusion 6) | 61.3 nM | 23.5 nM |  | 
9 | AUAUACGGGCAGGAUAUGCGAGCCAGAAAGCACGCAGAAGGGCUAACAUGAGGAUCACCCAUGUGAGCAACUCG [Eternabot (Original) Solution 9] (Eterna round: R97, puzzle: Exclusion 6) | 18.1 nM | 14.9 nM |  | 
10 | AUAUCAAGCAAGGAUAUGCAAAUGGUUAUUUAUGCAGAAGGUGCGACAUGAGGAUCACCCAUGUUUCUGGGUUU [JR_E6_Sub050] (puzzle: Exclusion 6) |  |  | 68.2 nM | 
11 | AUAUCACAUGAGGAUCACCCAUGUCAGGAUAUGAUACUAUGUACUUCGGUACAUAGUAUCAGAAGGGAUAUGAA [Ex1-3: 66] (Eterna round: R96, puzzle: Exclusion 1) | 83.3 nM | 40.3 nM |  | apparent KD of MS2 coat protein [1]: 29.2 nM
12 | AUAUCACAUGAGGAUCACCCAUGUCAGGAUAUGAUACUAUGUACUUCGGUACAUAGUAUCAGAAGGGAUAUGAA [Ex1-3: 66] (puzzle: Exclusion 1) |  |  | 45.4 nM | 
13 | AUAUCCCGAGGAUAUACAUGAGGAUCACCCAUGUCGGGCCUCUGGCCUAAGGCCGAAAGUAGAAGGUGGGUUUC [JL Riri mod 11] (puzzle: Exclusion 3) |  |  | 126 nM | 
14 | AUAUGUGCGAGAGGAUAUCGUGUACAAAGUACACGAGAAGGCUUCACAUGAGGAUCACCCAUGUACCGAGGUGAAACACCUUGA [Omei Exc(NG)1 Bv5] (Eterna round: R96, puzzle: Exclusion NG 1) | 357 nM | 234 nM |  | apparent KD of MS2 coat protein [1]: 156 nM
15 | AUAUUAAUAGUAAGGAUAUGCGUAUAUAUAAUUAUGCAGAAGGUACAUGAGGAUCACCCAUGUAUUAAUGUAUA [LRO-BmodExc4-01-Oppy's Opus] (Eterna round: R97, puzzle: Brourd's mod of Exclusion 4) | 16.5 nM | 15.6 nM |  | 
